From publication PMC11153517

Assays:
[1] = target: human tumor necrosis factor (TNF)-α (human) (UniProt P01375)
[2] = target: human tumor necrosis factor (TNF)-α (human) (UniProt P01375); remark: listed apart in the source

UniProt P01375, sequence (P01375 whole entry): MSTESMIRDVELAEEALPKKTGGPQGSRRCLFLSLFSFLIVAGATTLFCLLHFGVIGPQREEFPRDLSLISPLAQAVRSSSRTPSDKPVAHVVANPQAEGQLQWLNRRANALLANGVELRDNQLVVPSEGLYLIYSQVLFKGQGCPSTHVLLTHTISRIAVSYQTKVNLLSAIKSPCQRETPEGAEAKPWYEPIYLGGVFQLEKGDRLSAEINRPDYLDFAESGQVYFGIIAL

In the case of PIYLGGVFQ [peptide …], the apoptosis of Wehi-164 cells with TNFα (100 ng/ml) and actinomycin D, MTT assay, 20 h; peptide 50, 100 and 200 μM premixed with TNFα; 70% cell death with TNFα and AcD without the peptide [1] is reported as 26.4 % apoptosis and the inhibition of TNFα-induced NFκB (p65) nuclear translocation in A549 cells, Western blot of nuclear extract; peptide 50, 100 and 200 μM (49%, 56% and 65%) [2] is reported as 65 % inhibition.
